Experimental findings from article PMC9418451 are described below.

One assay addresses SecYEG (UniProt P0AGA2). Description: high-speed atomic force microscopy.
Another assay has as its target SecYEG G297LBT (UniProt P0AGA2). Description: FRET or BRET.

In the case of “SecA (from UniProt P10408 1-901) (natural protein)”, in the assay with SecYEG, the Kd came out at 10 nM, the tau off (time constant of the periods in which SecA was bound) worked out at 1.1 s and the tau on (time constant of the unbound periods until SecA rebinds) came out at 1.7 s.
In turn, “SecA(N95) K797C labeled with Atto488 (from UniProt P10408 1-901) (natural protein)” had an occupancy of SecYEG molecules by SecA with SecYEG G297LBT of 10%.
